From the nanobody polyreactivity screen of Harvey et al. (2022)

Experiment: yeast display, Sf9 membrane polyspecificity reagent, FACS + sequencing; frameworks hold sequencing errors
Outline: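 Galactose induction of a Saccharomyces cerevisiae BJ5465 synthetic nanobody display library ran 36–48 hours. The cells were then stained for 1 hour at 4 °C with 10% biotinylated, detergent-solubilized Sf9 membrane reagent, pulled down on streptavidin microbeads and FACS-sorted into low and high (top ~1%) gates on expression and reagent-binding fluorescence. Labels for polyreactivity follow the gate of origin.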

Row | Sequence | polyreactivity (PSR sort gate)
1 | QVQLVESGGGLVQAGGSLRLSCAASGFIFDGYTMGWYRQAPGKERELVAAISRSGGRTYYADSVKGRFTISRDNAKNTVYLQMNSLKPEDTAVYYCAVRYRQYSQTVASDYGYWGQGTQVTVSS | high polyreactivity
2 | QVQLVESGGGLVQAGGSLRLSCAASGSIFPYYAMGWYRQAPGKERELVAAITSAGSTNYADSVKGRFTISRDNAKNTVYLQMNSLKPEDTAVYYCAKEYYASGRSYRYPQYDYWGQGTQVTVSS | low polyreactivity
3 | QVQLVESGGGLVQAGGSLRLSCAASGRIFEHYAMGWYRQAPGKERELVAAITVSVGSTYYADSVKGRFTISRDNAKNTVYLEMNSLKPEDTAVYYCAAGIHCRYARDWYEYWGQGTQVTVSS | low polyreactivity
4 | QVQLVESGGGLVQAGGSLRLSCAASGITFGRYAMGWYRQAPGKERELVAAISRGSGSTYYADSVKGRFTISRDNAKNTVYLQMNSLKPEDTAVYYCAKVVRVGMGYWGQGTQVTVSS | high polyreactivity
5 | QVQLVESGGGLVQAGGSLRLSCAASGSIFYTYVMGWYRQAPGKERELVAAISASGVRTYYADSVKGRFTISRDNAKNTVYLQMNSLKPEDTAVYYCAADRQRADYYWGQGTQVTVSS | high polyreactivity
6 | QVQLVESGRGLVQAGGSLRLSCAASGFTFGVNAMGWYRQAPGKERELVAAITRSGGTTYYADSVKGRFTISRDNAKNTVYLQMNSLKPEDTAVYYCNRRARSYADDYWGQGTQVTVSS | high polyreactivity
7 | QVQLVESGGGLVQAGGSLRLSCAASGSIFGKYAMGWYRQAPGKERELVAAISRSGSRTFYADSVKGRFTISRDNAKNTVYLQMNSLKPEDTAVYYCNALSGDSYSYYGYDSWGQGTQVTVSS | high polyreactivity
8 | QVQLVESGGGLVQAGGSLRLSCAASGRTFDRNAMGWYRQAPGKERELVAAITSRGGRTYYADSVKGRFTISRDNAKNTVYLQMKSLKPEDTAVYYCAADLFSSRVRSNFDYWGQGTQVTVSS | high polyreactivity
9 | QVQLVESGGGLVQAGGSLRLSCAASGFTLPLYAMGWYRQAPGKERELVATISSGGTTYYADSVKGRFTISRDNAKNTVYLQMNSLKPEDTAVYYCNTLRQLGRPFYYWGQGTQVTVSS | high polyreactivity
10 | QVQLVESGGGLVQAGGSLRLSCAASGRTFGRNAMGWYRQSPGKERELVAAISRSGASTYYADSVMGRFTLSRDNAKNTVYLQMNSLKPEDTAVYDCAARYSYYHGSAGFDYWGQGTQVTVSS | high polyreactivity
11 | QVQLVESGGGLVQAGGSLRLSCAASGFTFSTNAMGWYRPAPGKERELVAAISYGGVSTYYADSVKGRFTISRDNAKNTVYLQMNSLKPEDTAVYYCAAGRITTRLYGDPFDYWGQGTQVTVSS | low polyreactivity
12 | QVQLVESGGGLVQAGGSLRLSCAPSGRIFYTKAMGWYRPAPGKERELVATIRISGGNTYYADSVKGRFTISRDNAKNTVYLQMNSLKPEDTAVYYCAARARPRYYRPPYDYWGQGTQVTVSS | high polyreactivity
13 | QVQLVESGGGLVQAGGSLRLSCAASGGIFWHYTMGWYRQAPGKERELVAAITRRGGSTYYADSVKGRFTISRDNAKNSVYLQMTSLKREDTAVYYCAADFLPQSYNWYDYWGQGTQVTVSS | low polyreactivity
14 | QVQLVESGGGLVQAGGSLRLSCAASGRTFTGNAMGWYRPAPGKERELVADNNLSGGDTYYADSVKGRFTISRDNAKNTVYLQMNSLKPEDTAVYYCNARVRDKRTGRYGYWGQGTQVTVSS | high polyreactivity
15 | QLQLVESGGGLVKAGGSLRLSCAASGRTLPVYAMGWYRQAPGKERELVAAIRWRGGRTYYADSVKGRFTISRDNAKNTVYLQMNSLKPEDTAVYYCAATTNTDRDYWGQGTQVTVSS | high polyreactivity
16 | QVQLVESGGGLVQAGGSLRLSCAASGSILSWYAMGWYRQAPGKERELVAAITGSGGTTYADSVKWRFTISRDNAKNTVYLQMNSLKPEDTAVYYCAADYLGIYDYWGQGTQVTVSS | high polyreactivity

Row | Sequence | polyreactivity (PSR sort gate)
17 | QVQLVESGGGLVQAGGSLRLSCAASGTYFNAMGWYRQAPGKERELVAAISLSGGRTYYADSVKGRFTISRDNAKNTVYLQMNSLKPEDTAVYYCAASNRGATRRQVNYWGQGTQVTVSS | high polyreactivity
18 | QVQLVESGGGLVQAGGSLRLNCAASGSIFDDYAMGWYRQAPGKERELVAAINIRTGSTYYADSVKGRFTISRDNAKNTVYLQMHSLKPEDTEVYYCNRVVRGFVRHLDYWGQGTQVTVSS | low polyreactivity
19 | QVQLVESGGGLVQAGGSLRLSCAASGSIFHKNAMGWYIQAPGKERELVARITSSSGSTYYADSVKGRFTISRDNAKNTVYLQMNSLKPEDTAVYYCNASPTTTPNFWRYDYWGQGTQVTVSS | high polyreactivity
20 | QVQLVESAGGLVQAGGSLRLSCAASGSIFAGNVMGWYRQEPGKEWELVAAISRRGGRTYYADSVKGRFTISRDNAKNTVYLQMNSLKPEETAVYYCAARRDPVLCKSDYWGQGTQVTVSS | high polyreactivity
21 | QVQLVESGGGLVQAGGSLRLSCAASGFTFGTNAMGWDRQAPGKERELVAAISGSGGSTYYADSVKGRFTISRDNAMNTVYLQMNSLKPEDTAVYYCNKGRPRKVYSEGFGYWGQGTQVTVSS | high polyreactivity
22 | QVQLVESGGGLVQAGGSLRLSCAASGRIFDLNAMGWYRQAPGKERELVAAITNTGSTNYADSVKGRFTISRDNAKNTVYLQMNSLKPEDTAVYYCARTYWLRYSGYRDDEYDYWGQGTQVTVSS | low polyreactivity
23 | QVQLGESGGGLVQAGGSLRLSCAASGRIFLRNVMGWYRPAPGKERELVAAISLSGASTYYADSVKGRFTISRDNAKNTVYLQMNSLKPEDTAVYYCAADITILSDYWGQGTQVTVSS | low polyreactivity
24 | QVQRVESGGGLVQAGRSLRLSCAASGRTFTVYAMGWYRQAPGKERELVAGIRRGDSTYYADSVKGRFTISRDNAKHTVYLQMNSLKPEDTAVYYCNARTSGSSYYYWGQGTQVTVCS | high polyreactivity
25 | QVQLVESGGGLVQAGGSLRLSCAASGFTVGYAMGWYRQAPGKERELVAAITRGGGTRTSYADSVKGRFTISRDNAKNTVYLQMNSLKPEDTAVYYCAARRWWSPRTQYDYWGQGTQVTVSS | high polyreactivity
26 | QVQLVESGGGLVQAGGSLRLSCAASGSTFWPYTMGWYRQAPGKERELVAAITLRGGTTYYADSVKGRFTISRDNEKNTVYLQMNSLKPEDTAVYYCAADVAYVEYDYWGQGTQVTVSS | low polyreactivity
27 | QVQLVESGGGLVQAGGSLRLSCAASGSTFVVYAMGWYRQAPGKERELVAAITGSGGSTYYADSVKGRFTISRDNAKNTVYLQMNSLKPEDTAVYYCAADLYFYVISWGYGFYYWGQGTQVTVSS | low polyreactivity
28 | QVQLVESGGGLVQAGGSLRLSCAASGRIFYPNALGWYRQAPGTERELVAAITWRGGRTYYADSVKGRFTISRDNAKNTVYLQMNSLKPEDTAVYYCNAVAPGKYNHWGQGTQVTVSS | high polyreactivity
29 | QVQLVDSGGGLVQAGGSLRLSCAASGFTFDGYAMGWYRQAPGQEREFVATISLSGGSTYYADSVKGRCTISRDNAKNTVYLQMNSLNPEDTAVYYCGKDTQPYLIDGFEYWGQGTQVTVSS | low polyreactivity
30 | QVQLVESGGGLVQAGGSLRLSCAASGYTFYAMGWYRQAPGKERELVAAITYRGARTYYADSVKGRFTISRDNAKNTVYLQMNSLKPEDTAVYYCNADYWGQGTEVTVSS | low polyreactivity
31 | QVQLVESGGGLVQAGGSLRLSCAASGSTFPGYAMGRYRPAPGKERELVAAISASGGSTYYADSVKGRFTISRDYAKNTVYLQMNSLTPEDTAVYYCAKVLSRGASAHVYWGQGTQVTVSS | low polyreactivity
32 | QVQLVESGGGLVQAGGSLRLSCAASGFTFSDNAMVWYRQAPGKERELVAAISEGSGITYDADSVKGRFTISRDNAKNTVNLQMNSLKPEDNAVYYCAADWLSKYDYWGQGTQVTVSS | low polyreactivity
